Assay [1] addresses T1, EGFR-ECD-hFc (human, UniProt P00533 25-645).
T1 construct: extracellular domain; Made in-house in HEK293F; ELISA coating antigen; not shown: Fc segment of human IgG1
The assay can be described thus: ELISA, EGFR-ECD-hFc coated (Fig. 3B).

A further assay has as its target 野生型EGFR on A431 cells (human, UniProt P00533 25-1210). In words: cell-based or functional assay.
The target in assay [2] is T2, PD-L1-His (UniProt Q9NZQ7 19-238, limits assumed).
T2 construct: extracellular domain; Made in-house in HEK293F; used as ELISA coat and as Biacore analyte; not shown: C-terminal polyhistidine tag
The assay can be described thus: ELISA, PD-L1-His coated at 10 ng/well. On the technique in general: ELISA stands for enzyme-linked immunosorbent assay.

The target in assay [3] is T1, EGFR-ECD-hFc. The assay can be described thus: ELISA, EGFR-ECD-hFc coated, HRP anti-human Fab detection (Fig. 2B).
Assay [4] deals with T2, PD-L1-His. The assay can be described thus: ELISA, PD-L1-His coated (Fig. 3A).

B1: Cetuximab-HC+Anti-PDL1-LC (antibody, V domains shown)
VH: not shown
VL: EIVLTQSPDFLSVTPKEKVTITCRASQSIGTTIHWYQQKPDQSPKLLIKYASQSFSGVPSRFSGSGSGTDFTLTINSVEAEDAATYYCQQSNSWPLTFGAGTKLEIKR
notes: Hybrid antibody: heavy chain of Cetuximab with the light chain of Anti-PDL1 (the common light chain)
As usually defined, the EC50 is the midpoint of the concentration-response curve. A low value points to higher potency in that assay. With B1, the EC50 in the assay with EGFR-ECD-hFc [1] was determined as 0.225 nM; with EGFR-ECD-hFc [3], 0.248 nM. The “抑制A431细胞的增殖 IC50 (CCK-8)” value in the assay with 野生型EGFR on A431 cells turned out to be 0.563 nM. Also, the binding result with PD-L1-His [2] is recorded as “no binding”.

B2: PDL1-Fab-Cetuximab-IgG1 (bispecific antibody)
heavy: not shown
light: EIVLTQSPDFLSVTPKEKVTITCRASQSIGTTIHWYQQKPDQSPKLLIKYASQSFSGVPSRFSGSGSGTDFTLTINSVEAEDAATYYCQQSNSWPLTFGAGTKLEIKRTVAAPSVFIFPPSDEQLKSGTASVVCLLNNFYPREAKVQWKVDNALQSGNSQESVTEQDSKDSTYSLSSTLTLSKADYEKHKVYACEVTHQGLSSPVTKSFNRGEC
notes: Tetravalent bispecific antibody against PD-L1 and EGFR; two long polypeptide chains and four common light chains
Regarding B2, the concentration for a half-maximal effect (EC50) was found to be 0.239 nM with EGFR-ECD-hFc [1] and 0.2 nM in the assay with PD-L1-His [4]. The “抑制A431细胞的增殖 IC50 (CCK-8)” value with 野生型EGFR on A431 cells is 0.709 nM.

B3: Cetuximab-Fab-PDL1-IgG1 (bispecific antibody)
heavy: not shown
light: B2 light
notes: as for B2
B3: the EC50 amounted to 0.185 nM with EGFR-ECD-hFc [1] and 0.336 nM with PD-L1-His [4]. Further, the “抑制A431细胞的增殖 IC50 (CCK-8)” value in the assay with 野生型EGFR on A431 cells was 0.96 nM.

These data come from patent CN113754774A (SUNSHINE GUOJIAN PHARMACEUTICAL SHANGHAI CO LTD, dated 2021).
